What was measured:
HepG2 cells = experiment: In vitro cellular uptake in HepG2 cells; type: cell-based
[1] = Kidney-targeted delivery of full-length (22mer) anti-miR-21 PNA: biodistribution (IVIS, flow cytometry); type: in vivo, C57BL/6J mice
Description: FIG. 9 illustrates that LBAAc ligand efficiently delivered a 22mer long PNA sequence to the kidney. […] PNA 6 contains succinic acid (SA) at 5′ end for conjugation with LBA-lysine conjugate. Lysine (K) was added on the 3′ end of the PNA followed by fluorescent probe 5-carboxytetramethylrhodamine (TAM) of each PNA. 000 represents the trioxo-miniPEG linker. […] Radiant Efficiency for TAMRA fluorescence in the kidneys of C57BL6/J mice. Results are represented as mean of n=2 with standard error mean as the error bars.
Full-length (22mer) PNA oligomers were designed and synthesized namely PNA 5, PNA 6 and LBAAc conjugate (PNA 6-LBAAc) to target miR-21 (FIG. 9A). PNA 6 was conjugated with LBAAc as described in FIG. 2A.
Biodistribution evaluation of PNA 5 and PNA 6-LBAAc in C57BL/6J mice at a low subcutaneous dose of 1.5 mg/kg (1/10 molar equiv of short PNA 1&2): A lower dose biodistribution was chosen for a comprehensive validation of LBAAc for kidney targeting. […] (FIG. 9D). Results were confirmed by flow cytometry analysis of kidney cells. The kidney cells obtained after RBC lysis were fixed with 4% PFA and analyzed for TAMRA fluorescence. The histogram plots representing the TAMRA fluorescence from 4 and 24 h samples confirmed the elimination of PNA 5 and accumulation of PNA 6-LBAAc in the kidney cells (FIG. 9C). […] Possibly the Tmax for kidney accumulation of PNA 6-LBAAc is >4 h. Decisively, the higher concentration of PNA 6-LBAAc in the kidney at 24 h compared to 4 h time point against PNA 5 confirmed the kidney targeting and potential of the LBAAc ligand.

With `O=C(O)[C@H](O)[C@@H](O)[C@H](O[C@@H]1O[C@H](CO)[C@H](O)[C@H](O)[C@H]1O)[C@H](O)CO` [LBA, lactobionic acid] the cellular uptake (HepG2 cells) was “ASGPR mediated cellular uptake”.
For `CC(=O)OC[C@H]1O[C@@H](O[C@@H]([C@H](OC(C)=O)[C@@H](OC(C)=O)C(=O)NCCCC[C@H](NC(=O)[C@H](OC(C)=O)[C@@H](OC(C)=O)[C@H](O[C@@H]2O[C@H](COC(C)=O)[C@H](OC(C)=O)[C@H](OC(C)=O)[C@H]2OC(C)=O)[C@@H](COC(C)=O)OC(C)=O)C(=O)NCCCCCCNC(=O)CCC(=O)NCCOCCOCCOCC(=O)NCCN(CC(=O)NCCN(CC(=O)NCCN(CC(=O)NCCN(CC(=O)NCCN(CC(=O)NCCN(CC(=O)NCCN(CC(=O)NCCN(CC(=O)NCCN(CC(=O)NCCN(CC(=O)NCCN(CC(=O)NCCN(CC(=O)NCCN(CC(=O)NCCN(CC(=O)NCCN(CC(=O)NCCN(CC(=O)NCCN(CC(=O)NCCN(CC(=O)NCCN(CC(=O)NCCN(CC(=O)NCCN(CC(=O)NCCN(CC(=O)N[C@@H](CCCCNC(=O)COCCOCCOCCNC(=O)c2ccc(-c3c4ccc(=[N+](C)C)cc-4oc4cc(N(C)C)ccc34)c(C(=O)[O-])c2)C(N)=O)C(=O)Cn2cnc3c(N)ncnc32)C(=O)Cn2cc(C)c(=O)[nH]c2=O)C(=O)Cn2ccc(N)nc2=O)C(=O)Cn2cnc3c(=O)[nH]c(N)nc32)C(=O)Cn2cnc3c(N)ncnc32)C(=O)Cn2cnc3c(N)ncnc32)C(=O)Cn2cc(C)c(=O)[nH]c2=O)C(=O)Cn2cnc3c(N)ncnc32)C(=O)Cn2cnc3c(=O)[nH]c(N)nc32)C(=O)Cn2cc(C)c(=O)[nH]c2=O)C(=O)Cn2ccc(N)nc2=O)C(=O)Cn2cc(C)c(=O)[nH]c2=O)C(=O)Cn2cnc3c(=O)[nH]c(N)nc32)C(=O)Cn2cnc3c(N)ncnc32)C(=O)Cn2ccc(N)nc2=O)C(=O)Cn2cc(C)c(=O)[nH]c2=O)C(=O)Cn2cnc3c(N)ncnc32)C(=O)Cn2ccc(N)nc2=O)C(=O)Cn2cnc3c(N)ncnc32)C(=O)Cn2cnc3c(N)ncnc32)C(=O)Cn2ccc(N)nc2=O)C(=O)Cn2cc(C)c(=O)[nH]c2=O)[C@@H](COC(C)=O)OC(C)=O)[C@H](OC(C)=O)[C@@H](OC(C)=O)[C@H]1OC(C)=O` [PNA 6-LBAAc], the “organ distribution of TAMRA fluorescence signal (IVIS)” value ([1]; 1.5 mg/kg subcutaneous) was “limited to the kidney only”, the “overall pharmacokinetics / biodistribution” value ([1]; 1.5 mg/kg subcutaneous) was “slower biodistribution” and the “increase in kidney retention compared to unconjugated PNA 5” value ([1]; 1.5 mg/kg subcutaneous, 24 h) was 4 fold. For the same molecule, the “kidney concentration at 24 h” value ([1]; 1.5 mg/kg subcutaneous, 24 h) was “concentration increased in the kidney”, the “TAMRA fluorescence in kidney cells (flow cytometry)” value ([1]; 4 and 24 h samples) was “accumulation” and the Tmax ([1]; mouse, in vivo, sc, 1.5 mg/kg subcutaneous, read-out: Tmax for kidney accumulation) was > 4 h.
In the case of “tris N-acetylgalactosamine [tGalNAc, reference compound]”, the cellular uptake (HepG2 cells) is reported as “ASGPR mediated cellular uptake”.
